The record followed here is publication PMC6614797.

A word on the Kd: it is the concentration at which binding is half-saturated.

In assay [1] the target is RNA polymerase (E. coli) (UniProt P0A7Z4). Kind of assay: SEC.
The target in assay [2] is NusA-AR2^D443C labeled with fluorescein-5-maleimide (E. coli) (UniProt P0AFF6). The assay can be described thus: fluorescence polarisation. Background: Polarisation of emitted light reports the rotation of a fluorescent probe.

On to “inositol monophosphatase SuhB (from UniProt P0ADG4 1-267) (natural protein)”, for which the percent of SuhB coeluted with the rrnG-TAC in assay [1] is 20%. This substance also showed a Kd in assay [2] of 83 µM.

For “ribosomal protein S4 (from UniProt P0A7V8 1-206) (natural protein)”, the percent of S4 coeluted with the rrnG-TAC in assay [1] came out at 25%.
